# Experimental data as given in the supplement of paper PMC9170038.
# Test system: MS2 coat protein
# Assay: apparent KD of MS2 coat protein; higher = weaker reporter binding
# Conditions: Eterna round: R107; input ligand: theophylline 20 uM
# Method: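 RNA-MaP round R107: designed RNA switches with theophylline, tryptophan, arginine or FMN aptamers are transcribed on-chip within common flanks. They are titrated with SNAP-549-labelled MS2 coat protein in RNA-MaP buffer (100 mM Tris pH 7.5, 80 mM KCl, 4 mM MgCl2), without ligand or with the indicated ligand. Median apparent KD per design.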
row,Sequence,apparent KD of MS2 coat protein [nM]
1,UCGCUCUGGGUGAAUCCCAGAGAUGUGGAAGGAGCGGAGGAAACUCCAGGUAGGUCGCCAUCGAACAUGAGGAUCACCCAUGUAC [Same State - Arginine A (Freestyle 28)],60.7
2,ACUAGUUGUGCAGAUACCAGACAUGAGGAUCACCCAUGUUUGGGAUCUAAUGAUCAUCCUGUCCCUUGGCAGCUGUACAUCUAGA [Omei Theo B Exc v2],234
3,AAUAAUAAGGCGGCCGCCACUAAACAUGAGGAUCACCCAUGUCUCGAGCGCUUGCGUUUGGGAAGUAGGACCGGGCCAAUAAUAA [Exclusion - Tryptophan B (Freestyle 5)],16.4
4,AGAUAACAUGGUUUAAUAAGUUAAACUGAUACCAGUGUAUAUAAUCACCCUUGGCAGCAGCAACAUGAGGAUCACCCAUGUAAUA [JR_SSTheophyA_Sub013],19.9
5,GCUGCCAUACGAAGGAGCGCUGGUGUAAUGAGGCGAACAUGAGGAUCACCCAUGUGGCAGAAGCAGGUAGGUCGCGUAUGGCAGC [EAB #15],20.6
6,CGGACAUGAGGAUCACCCAUGUACACUGAAGGAGCGUCGAGAACGACAGGUAGGUCGCAGGUUGAGGAUGGUGAUGCUCAGGUAG [Exclusion Arginine A GF 3],64.7
7,CCCUCCAGAACGGCCGCCACUAAAGGGUUGUGUGCGACUCCGGAACAUGAGGAUCACCCAUGUCUUAGGACCGGGUUCCCUUCUA [theeternabot_sameState_MS2_Trp_B_30],81.9
8,GUAGGUCUCAUGGGUGGACCUACACUGGAAGGAGCGAGCGAAAGCUCAGGUAGGUCGCCAGAAACAUGAGGAUCACCCAUGUAAU [(A)''-(M)'-(A)'-(Arg1)-(Arg2)-(M1)-(M2)_Design1],144
9,UAUAUAUAUAUGGAUACCAGCAGAGAAAACGUUUAUCCUAACAUGAGGAUCACCCAUGUAUGCCCUUGGCAGCUGUGUAUAUAUA [8.H],26.5
10,GAUUUAACAAAAGUUAGAUCAGUGGGUGAACGAGGACCGGUACGGCCGCCACUCGGACAUGAGGAUCACCCAUGUCCAUGUGAAA [AstrosExyTryA#20],19.4
11,AUGUCAUUGGUGUAGCUGUGAAAUGGCGAUACCAGCGUGGAAACACGCCCUUGGCAGCGCCAAAACAUGAGGAUCACCCAUGUUA [Pardubice],135
12,ACCCAUAAUUGGGCGGGUGGAUUGAGUGAUACCAGUCGUAUACAUGACCCUUGGCAGCACCGACAUGAGGAUCACCCAUGUGCCA [Same State Theophylline A GF23],38.4
13,UUCAGCUAGUCGGCCGCCACUACAUGAGGAUCACCCAUGUAGGUCCACACUGCUUCGGCAGUGAGUAGGACCGGGACUAGCUGAG,15.2
14,UCGAAUGCGGCGGCCGCCACUCGCGGAUAACGAUAGCUUAACAUGAGGAUCACCCAUGUGUCAUGGAGGACCGGGCCCAUACGGU [kmkmullin],23.2
15,AAUUACAUGAGGAUCACCCAUGUGGCACAACGAGGACCGGUACGGCCGCCACUCGGUGCUGUACCACAAAACAUGCACGGGAAAG [theeternabot_sameState_MS2_Trp_A_6],81.4
16,AUGCAUAGCCGAAGGAGCGCAGUAGGAUGACAUGAGGAUCACCCAUGUGUGUGAUGUGGAUUGCAGGUAGGUCGCGGAGUGGUAU [Exclusion - Arginine B (Freestyle 5)],128
17,AGUUACUCGAACAUGGUUGACGAGUGGCAACGAGGACCGGUACGGCCGCCACUCGAAUAAACAUGAGGAUCACCCAUGUACAAAU [T''-M'-T'-T-MS2 - Design 10.b],148
18,CUAUUUAUAGCGGCCGCCACUUACUCAUGAGGUAACAACAUGAGGAUCACCCAUGUUUGAGGAUCAAGGACCGGGCUAUGGAUAG [AstrosSSTryB#12],37
19,CUGCCAUGCAGAGAUACCAGUGAGCUCAAAACAUGAGGAUCACCCAUGUAAAUUGCCGAUCACCCUUGGCAGCUCUGCAUGGCAG [}=%#^],10.3

# Same assay, conditions: Eterna round: R107; input ligand: theophylline 2 mM
row,Sequence,apparent KD of MS2 coat protein [nM]
1,ACGCUGCAUAGGAAAACUAUGUAGCGAAAUCGAGGACCGGUACGGCCGCCACUCGUCCUCAACAUGAGGAUCACCCAUGUAAUAA [Mat - Exclusion - Trytophan A - D8],22.8
2,AGACUGUAAAGUCUACCGGUCAACAAUAAUCGAGGACCGGUACGGCCGCCACUCGAUGUGAUAUACACAUGAGGAUCACCCAUGU [Tryptophan A 16],19.7
3,UAAUAAAUAAAUCCAAGGUGAAGGUCAGAUACCAGCCAGAUAACUGGCCCUUGGCAGCUGAAUAAACUUGAGGAUCACCCAGGUA [TheoAS 27 #OpenEnded #MS2Late #AlternativeMS2],548
4,GGUGGACUUUCGGCCGCCACUGAGAGAGUCGUGUGAACAUGAGGAUCACCCAUGUAAUAUAUAUACAGGACCGGGAGGGUUGUCC [4.O],25
5,AUAACCCUUGACUAAAACACUAAAUCAGUUCGAGGACCGGUACGGCCGCCACUCGUGUCAAGACAUGAGGAUCACCCAUGUACCU [Isbe],44.3
6,AGGACAUGAGGAUCACCCAUGUACACUGAAGGAGCGUCGAGAACGACAGGUAGGUCGCAGGCUAAGGAAGGUGAUGCUCAAGAAG [Exclusion Arginine A GF6],29.8
7,UGUAUGGACUGAAGGAGCGGGUUGAUAAUCUGAGGAUCACCCAGGUAAAAGGCGAAAGCCACCCAGGUAGGUCGCAGUCCAUACU,41.8
8,UAAUAAAUAAAUCCAAGGUGUAGGUCAGAUACCAGCCAGAUAACUGGCCCUUGGCAGCUGAAUAAACCUGAGGAACACCCAGGUA [TheoAS 24 #OpenEnded #MS2Late #AlternativeMS2],197
9,GGAUAGGACACGGCCGCCACUAGCUAGGAUACUAGCAACAUUUGGGUACAUGAGGAUCACCCAUGUAGGACCGGGUGUCCUAUCG,85.5
10,GGAUAGGACACGGCCGCCACUAGCUAGGAUACUAGCAACAUUUCCUCACAAGAGGAUCACCCUUGUAGGACCGGGUGUCCUAUCG,118
11,AUACAUGAGGAUCACCCAUGUUAUAGUGAAGGAGCGACAUUUAUGUCAGGUAGGUCGCACUGUUGUUUAAUGAUUCUUGGAUCUU [#20 Exclusion - Arginine A],14.1
12,UAAACUACACAUGAGGAUCACCCAUGUGGCCGAGGACCGGUACGGCCGCCACUCGUGUGUUAAUAAUAGAACUGCAAGGUUCUGU [Enindidiso],272
13,GGUAUGUAUUCGGAAACGAAUGCAUACCAACGAGGACCGGUACGGCCGCCACUCGGGCCGUGAUCACAUGAGGAUCACCCAUGUA [Ex Tryptophan A 5],42.3
14,AGCACUGUGACGGCCGCCACUACAUAUAGGGUGGUCAGGCCCAUAAUACAUGAGGAUCACCCAUGUAGGACCGGGUCUCAGUGCA [Omei Trp Exc B A v12],18.3
15,UCGCUCUGGGUGAAUCCCAGAGAUGUGGAAGGAGCGGAGGAAACUCCAGGUAGGUCGCCAUCGAACAUGAGGAUCACCCAUGUAC [Same State - Arginine A (Freestyle 28)],66.4
16,AAUAAUAAGGCGGCCGCCACUAAACAUGAGGAUCACCCAUGUCUCGAGCGCUUGCGUUUGGGAAGUAGGACCGGGCCAAUAAUAA [Exclusion - Tryptophan B (Freestyle 5)],18.1
17,GCUGCCAUACGAAGGAGCGCUGGUGUAAUGAGGCGAACAUGAGGAUCACCCAUGUGGCAGAAGCAGGUAGGUCGCGUAUGGCAGC [EAB #15],14.9
